{"source": "patent US20250276075A1", "about": "“METHODS OF TREATING AXL-EXPRESSING CANCERS WITH ANTI-AXL ANTIBODIES, ANTIBODY FRAGMENTS AND THEIR IMMUNOCONJUGATES” (BIOATLA, INC., priority 2020, published 2025)", "molecules": {"B1": {"name": "Mecbotamab vedotin (conjugate, chains of the INN, looked up)", "VH": "EVQLVQSGAEVKKPGATVKISCKVSGYSFWGATMNWIRQPPGKGLEWIGLIKPSNGGTSYNQKFKGRVTISADKSISTAYLQWSSLKASDTAMYYCAHGHYESYEAMDYWGQGTLVTVSS", "VL": "DIQMTQSPSSLSASVGDRVTITCKASQDVVSAVAWYQQKPGQAPRLLIYWQDTRHTGVPSRFSGSGSGTEFTLTISSLQPDDFATYYCQEHFSPPLTFGQGTKVEIK", "modifications": "MC-vc-PAB-MMAE conjugate"}}, "biological_target": "T1, rat Axl (Rattus norvegicus, UniProt A0A0G2K2H0)", "T1 sequence (A0A0G2K2H0 21-879)": "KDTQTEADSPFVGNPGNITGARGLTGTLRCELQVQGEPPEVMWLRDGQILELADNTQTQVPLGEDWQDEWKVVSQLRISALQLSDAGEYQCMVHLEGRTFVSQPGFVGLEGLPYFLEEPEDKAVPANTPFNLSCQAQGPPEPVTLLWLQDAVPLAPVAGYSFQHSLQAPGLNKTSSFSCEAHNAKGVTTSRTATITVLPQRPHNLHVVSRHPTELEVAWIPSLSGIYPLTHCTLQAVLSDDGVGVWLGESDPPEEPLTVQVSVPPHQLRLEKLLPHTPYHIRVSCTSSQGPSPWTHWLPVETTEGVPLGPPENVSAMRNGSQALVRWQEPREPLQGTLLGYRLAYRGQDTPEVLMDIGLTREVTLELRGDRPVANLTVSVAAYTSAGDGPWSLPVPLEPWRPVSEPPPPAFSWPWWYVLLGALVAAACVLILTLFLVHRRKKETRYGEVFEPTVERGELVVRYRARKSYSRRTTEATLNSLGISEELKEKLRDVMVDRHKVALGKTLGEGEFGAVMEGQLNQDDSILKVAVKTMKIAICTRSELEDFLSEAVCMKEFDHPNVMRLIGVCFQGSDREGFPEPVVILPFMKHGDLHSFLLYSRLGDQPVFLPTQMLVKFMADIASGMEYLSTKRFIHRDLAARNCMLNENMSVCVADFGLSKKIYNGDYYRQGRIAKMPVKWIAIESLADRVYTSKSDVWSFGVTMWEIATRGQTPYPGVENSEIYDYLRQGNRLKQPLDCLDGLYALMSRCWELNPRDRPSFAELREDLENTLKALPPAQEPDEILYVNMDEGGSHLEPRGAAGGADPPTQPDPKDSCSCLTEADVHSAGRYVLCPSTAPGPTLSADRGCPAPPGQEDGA", "test": "BA3011 binding to rat Axl", "note": "“Also recorded” adds a separate entry of the source.", "data": [{"molecule": "B1", "values": [{"measurement": "binding to rat Axl", "value": "not mouse or rat Axl; also recorded: lacked binding to the rodent enzyme"}]}]}
